Measured values: patent publication US20200277349A1 (FRAUNHOFER GESELLSCHAFT ZUR F RDERUNG DER ANGEWANDTEN …, published 2020)
Values belong to the binder of their own block, whether it stands above or below them.

Assays:
[1] = biological target: T1, human IL-1RAPL1 extracellular domain-Fc chimera (human, UniProt Q9NZN1 19-357); experiment: plate binding assay on immobilized IL-1RAPL1 extracellular domain-Fc chimera (FIG. 7B)
T1 construct: extracellular domain; Coated on 96 well plates at 0.5 ug; also called IL-1RAPL1-Fc; immobilized IL-1RAPL1; not shown: Fc part of the chimera
T1 sequence (looked up): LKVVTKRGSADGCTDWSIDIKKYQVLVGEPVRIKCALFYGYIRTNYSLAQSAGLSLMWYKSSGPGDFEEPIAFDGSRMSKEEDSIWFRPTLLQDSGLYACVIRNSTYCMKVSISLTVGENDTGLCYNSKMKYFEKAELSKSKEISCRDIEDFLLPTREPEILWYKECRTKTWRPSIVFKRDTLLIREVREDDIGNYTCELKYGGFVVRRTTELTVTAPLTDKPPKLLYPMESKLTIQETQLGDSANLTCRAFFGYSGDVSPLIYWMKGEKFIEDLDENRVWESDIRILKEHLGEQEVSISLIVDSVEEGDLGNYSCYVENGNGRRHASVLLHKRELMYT
Description: (§1) After 24 h IL-6 concentration in the supernatants was measured using cytometric bead array, normalized results are shown. Data are means±SEM, n=7. (B) Binding kinetics of full length and cleaved IL-38 to immobilized IL-1RAPL1. […] IL-38 binding to the extracellular domain of the receptors was detected using biotinylated monoclonal IL-38 antibody. Data are means±SEM, n=5.*p<0.05, ANOVA with Bonferroni's correction.
(§2) The inventors performed a receptor binding assay as explained above. Both IL-38 isoforms bound to IL-1RAPL1 in this assay (FIG. 7B). However, binding kinetics seemed to differ slightly. […] IL-1RAPL1 knock-down in macrophages abrogated both, IL-6 induction by full-length 11-38 and IL-6 suppression by truncated IL-38 (FIG. 7C).

[2] = biological target: T1, human IL-1RAPL1 extracellular domain-Fc …; experiment: plate binding assay: IL-1RAPL1-Fc coated, IL-38 titrated, detected with biotinylated monoclonal IL-38 antibody
Description: as §1, §2

- binding result [1]: binds
B1: recombinant human truncated (cleaved) IL-38 (IL-38aa20-152) (ligand)
chain: LYTRDGQLLVGDPVADNCCAEKICILPNRGLARTKVPIFLGIQGGSRCLACVETEEGPSLQLEDVNIEELYKGGEEATRFTFFQSSSGSAFRLEAAAWPGWFLCGPAEPQQPVQLTKESEPSARTKFYFEQSW
notes: also called truncated IL-38

- binding result [2]: binds
B2: recombinant human full length IL-38 (IL-38aa1-152) (ligand)
chain: MCSLPMARYYIIKYADQKALYTRDGQLLVGDPVADNCCAEKICILPNRGLARTKVPIFLGIQGGSRCLACVETEEGPSLQLEDVNIEELYKGGEEATRFTFFQSSSGSAFRLEAAAWPGWFLCGPAEPQQPVQLTKESEPSARTKFYFEQSW
